{
  "source": "paper PMC5846730",
  "biological_target": "GbnD4 DHD domain (Burkholderia gladioli BCC0238)",
  "assay": "NMR titration",
  "data": [
    {"substance": "GbnD5 apo-DH-ACP di-domain (domain or fragment)", "values": [
      {"measurement": "average apparent KD of the Val19-Glu30 and Ala49-Arg60 regions", "result": "7 to 15", "unit": "µM"}
    ]}
  ]
}
